From patent US20210087231A1 (UNIVERSITY OF MARYLAND BALTIMORE, published 2021) come the findings set out here.

One assay addresses T1, MyD88-Cer (UniProt Q99836 155-296).
T1 construct: The vector is 'described previously'; Expressed in HeLa cells; also called MyD88 TIR-Cer; Cer-labeled MyD88 TIR; not shown: Cerulean fluorescent protein (Cer)
The assay can be described thus: FRET-FLIM in HeLa cells expressing the Cer fusion, Cy3-peptide 1 h. Here is the method: (§1) To identify potential binding partners of inhibitory peptides a FRET approach coupled with Fluorescence Lifetime Imaging Microscopy (FLIM) was used. HeLa cells were transiently transfected with an expression vector that encodes a TIR domain fused with Cerulean fluorescent protein (Cer). Cells were treated with various concentrations of a Cy3-labeled inhibitory peptide 48 hours after transfection. Cy3 is a suitable FRET acceptor for Cer fluorescence. A direct molecular interaction of a Cy3-labeled peptide with Cer-fused TIR domain should quench Cer fluorescence, leading to a decreased fluorescence lifetime.
(§2) A progressive shift of average fluorescence lifetime towards lower values observed with increasing peptide concentrations indicates the binding between donor and acceptor moieties. […] FRET efficiencies presented in FIG. 13 were calculated from the average lifetimes corresponding to entire images that contained multiple cells as in images shown in FIG. 11, using data obtained in three independent experiments. […]
(§3) The strongest peptide-induced quenching was detected for the TLR9 TIR-Cer-expressing cells treated with Cy3-9R34-ΔN. This peptide quenched the TLR9 TIR-Cer fluorescence dose-dependently with FRET efficiency varying in the range of 9-23% (FIG. 13). […]

In a further assay the target is T2, TRAM-Cer (UniProt Q86XR7 1-235).
T2 construct: Control construct expressed in HeLa cells; not shown: Cerulean fluorescent protein (Cer)
The description is as above. Here is the method:
as §1, §2, §3

No end group written: not given here. Cy3 = Cy3 fluorescent dye label

T2 sequence (Q86XR7 whole entry): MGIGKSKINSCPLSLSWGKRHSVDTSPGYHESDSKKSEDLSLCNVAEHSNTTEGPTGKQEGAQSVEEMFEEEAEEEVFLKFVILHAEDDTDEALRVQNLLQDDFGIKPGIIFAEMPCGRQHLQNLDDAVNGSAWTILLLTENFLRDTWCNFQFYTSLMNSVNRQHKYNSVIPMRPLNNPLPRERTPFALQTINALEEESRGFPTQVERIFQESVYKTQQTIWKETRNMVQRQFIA
T1 sequence (Q99836 155-296): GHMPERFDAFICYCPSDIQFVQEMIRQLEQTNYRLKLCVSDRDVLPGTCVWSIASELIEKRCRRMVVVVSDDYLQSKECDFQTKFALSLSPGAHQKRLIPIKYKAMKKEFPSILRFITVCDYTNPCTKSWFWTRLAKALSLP

B1: Cy3-9R34-ΔN (peptide)
peptide: Cy3-RQIKIWFQNRRMKWKKALRLCLEERD
notes: Cy3-labeled cell-permeating decoy peptide (CPDP); also called 9R34-ΔNa; peptide from Surface 1 (S1) of TLR9
As to B1, the binding result was “no binding (tested: 2.5 and 10 µM)” with MyD88-Cer; “no binding (tested: 40 µM)” with TRAM-Cer.
